According to paper doi:10.1101/2023.02.05.527200 (bioRxiv, 2023):
Read-outs that look alike come from different tables or passages of the source.

Tests used:
V5 peptide [1] = molecular target: T1, V5 peptide (Parainfluenza virus 5 (strain W3) …); assay: ITC
T1 chain: GKPIPNPLLGLDST

V5 peptide [2] = molecular target: T1, V5 peptide; assay: ITC

Kd (V5 peptide [1]): 574 nM
Kd (V5 peptide [2]): ~218 nM
B1: NbV5 (VHH)
VHH: EVQLQASGGGFVQPGGSLRLSCAASGTTSFGDTMGWFRQAPGKEREFVSAISRQGDKHYYADSVKGRFTISRDNSKNTVYLQMNSLRAEDTATYYCAEWMNTRREFITPYWGQGTQVTVSS
